According to US20170240628A1 (CELLMID, published 2017):

B1: murine IP14 precursor antibody (antibody, V domains shown)
VH: QVQLQQPGAELVRPGHSVKLSCKASGQSFSSYWMNWVRQRPGQGLEWIGMIHPSDSETILNQKFKDKATLTVDISSNTAYMQLSSPTSEDSAVYFCSSWSAKRGDFWGQGTTLTVSS
VL: DIVLTQSPATLSVTPGDSVNLSCRASESISNNLHWYQQKSHESPRLLIKYASQSISGIPSRFSGSGSGTDFNLSVNSVETEDFGMYFCQQSNSWPLTFGAGTKLELKR
notes: Murine monoclonal antibody; also called mIP14; mAb IP14
B2: mouse-human chimeric IP14 antibody (antibody, V domains shown)
VH: QVQLQQPGAELVRPGHSVKLSCKASGQSFSSYWMNWVRQRPGQGLEWIGMIHPSDSETILNQKFKDKATLTVDISSNTAYMQLSSPTSEDSAVYFCSSWSAKRGDFWGQGTTLTVSS
VL: DIVLTQSPATLSVTPGDSVNLSCRASESISNNLHWYQQKSHESPRLLIKYASQSISGIPSRFSGSGSGTDFNLSVNSVETEDFGMYFCQQSNSWPLTFGAGTKLELKR
notes: also called chimeric antibody; Hv0 Lv0
B3: IP14-H3L6 (antibody, V domains shown)
VH: QVQLVQSGAEVKKPGASVKVSCKASGQSFSSYWMNWVRQAPGQGLEWMGMIHPSDSETILNQKFKDKVTMTRDTSTSTVYMELSSLRSEDTAVYYCARWSAKRGDFWGQGTLVTVSS
VL: EIVLTQSPSTLSASVGDRVNITCRASESISNNLHWYQQKPHKAPKLLIYYASQSISGVPSRFSGSGSGTEFNLTISSVQPDDFATYYCQQSNSWPLTFGQGTKVEIKR
notes: also called Hv3 Lv6
B4: IP14-H6L8 (antibody, V domains shown)
VH: QVQLVQSGGGLVKPGHSLRLSCAASGQSFSSYWMNWVRQAPGKGLEWIGMIHPSDSETILNQKFKDKATLSVDIAKNSAYLQMNSLRAEDTAVYYCSSWSAKRGDFWGQGTLVTVSS
VL: DIVLTQSPATLSLSPGERATLSCRASESISNNLHWYQQKPHQAPRLLIYYASQSISGVPARFSGSGSGTDFTLTISSVEPEDFAVYYCQQSNSWPLTFGQGTKVEIKR
notes: also called hIP14-H6L8; Hv6 Lv8
B5: IP14-H6L7 (antibody, V domains shown)
VH: QVQLVQSGGGLVKPGHSLRLSCAASGQSFSSYWMNWVRQAPGKGLEWIGMIHPSDSETILNQKFKDKATLSVDIAKNSAYLQMNSLRAEDTAVYYCSSWSAKRGDFWGQGTLVTVSS
VL: DIVLTQSPATLSLSPGERANLSCRASESISNNLHWYQQKPHQAPRLLIYYASQSISGVPARFSGSGSGTDFNLTISSVEPEDFAVYYCQQSNSWPLTFGQGTKVEIKR
notes: also called Hv6 Lv7
B6: IP14-H3L3 (antibody, V domains shown)
VH: QVQLVQSGAEVKKPGASVKVSCKASGQSFSSYWMNWVRQAPGQGLEWMGMIHPSDSETILNQKFKDKVTMTRDTSTSTVYMELSSLRSEDTAVYYCARWSAKRGDFWGQGTLVTVSS
VL: DIVLTQSPATLSLSPGERATLSCRASESISNNLHWYQQKPGQAPRLLIYYASQSISGIPARFSGSGPGTDFTLTISSLEPEDFAVYYCQQSNSWPLTFGGGTKLEIKR
notes: also called Hv3 Lv3
B7: IP14-H6L3 (antibody, V domains shown)
VH: QVQLVQSGGGLVKPGHSLRLSCAASGQSFSSYWMNWVRQAPGKGLEWIGMIHPSDSETILNQKFKDKATLSVDIAKNSAYLQMNSLRAEDTAVYYCSSWSAKRGDFWGQGTLVTVSS
VL: DIVLTQSPATLSLSPGERATLSCRASESISNNLHWYQQKPGQAPRLLIYYASQSISGIPARFSGSGPGTDFTLTISSLEPEDFAVYYCQQSNSWPLTFGGGTKLEIKR
notes: also called hIP14-H6L3; Hv6 Lv3
B8: IP14-H5L8 (antibody, V domains shown)
VH: QVQLVQSGGGLVQPGGSLRLSCAASGQSFSSYWMNWVRQAPGQGLEWIGMIHPSDSETILNQKFKDKATLTVDISKNTAYLQMNSLRAEDTAVYYCSSWSAKRGDFWGQGTLVTVSS
VL: DIVLTQSPATLSLSPGERATLSCRASESISNNLHWYQQKPHQAPRLLIYYASQSISGVPARFSGSGSGTDFTLTISSVEPEDFAVYYCQQSNSWPLTFGQGTKVEIKR
notes: also called hIP14-H5L8; Hv5 Lv8
B9: IP14-H6L6 (antibody, V domains shown)
VH: QVQLVQSGGGLVKPGHSLRLSCAASGQSFSSYWMNWVRQAPGKGLEWIGMIHPSDSETILNQKFKDKATLSVDIAKNSAYLQMNSLRAEDTAVYYCSSWSAKRGDFWGQGTLVTVSS
VL: EIVLTQSPSTLSASVGDRVNITCRASESISNNLHWYQQKPHKAPKLLIYYASQSISGVPSRFSGSGSGTEFNLTISSVQPDDFATYYCQQSNSWPLTFGQGTKVEIKR
notes: also called Hv6 Lv6

Columns and labels:
[1] = biological target: T1, recombinant human midkine (huMK) (human, UniProt P21741 21-143); test: cell-based or functional assay
T1 sequence (looked up): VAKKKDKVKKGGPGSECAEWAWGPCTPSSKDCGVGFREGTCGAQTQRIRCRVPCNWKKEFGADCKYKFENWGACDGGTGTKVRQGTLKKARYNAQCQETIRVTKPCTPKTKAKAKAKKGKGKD

[2] = biological target: T1, recombinant human midkine (huMK); test: ELISA by the methods of Example 2 (printed as KD)
Procedure: (§1) The binding specificity and affinity of the humanised anti-MK antibodies to recombinant human MK (huMK) and murine MK (muMK) was assessed by ELISA. ELISA plates (Nunc Immuno MaxiSorp 96 well flat-bottom were coated with 100 uL of 2 ug/mL of either huMK or muMK in 2% BSA/PBS (overnight at room temperature). After washing, blocking (1 h at 37° C.), and washing again, the humanised anti-MK and chimeric antibodies described in Example 1 were analysed for binding to huMK or muMK at concentrations ranging between 3 μg/ml and 0.00004 μg/ml in 2% BSA/PBS (1 h at 37° C.). After washing, the binding of antibody was detected with goat anti-mouse IgG (Fab specific)-HRP conjugate (Sigma, Cat. No. A9917) and SigmaFast OPD substrate (Sigma, Cat. No. P9187). The reaction was stopped with 3 M HCl, absorbance read at 490 nm on a Dynex Technologies MRX TC II plate reader and the binding curves plotted. Binding affinity data for the humanised anti-MK antibodies to huMK and muMK are presented in Table 6 and Table 7 respectively, and in FIG. 3.
(§2) KD values for hIP14-H5L8, hIP14-H6L3 and hIP14-H6L8 was then compared with the KD values obtained for the corresponding murine IP14 precursor antibody and the chimeric antibody using the methods described in Example 2. As is apparent from Table 7, the humanised mIP14 antibodies designated hIP14-H5L8, hIP14-H6L3, and hIP14-H6L8 were each shown to have better binding affinity than the murine IP14 precursor antibody and the chimeric antibody for huMK and muMK. Based on this finding, these candidate antibodies were produced to 100 mg scale to enable further testing in functional assays to determine biological function.

[3] = biological target: T2, recombinant murine midkine (muMK) (murine, UniProt P12025 23-140); test: ELISA by the methods of Example 2 (printed as KD)
T2 construct: also called murine MK; Murine MK
T2 sequence (looked up): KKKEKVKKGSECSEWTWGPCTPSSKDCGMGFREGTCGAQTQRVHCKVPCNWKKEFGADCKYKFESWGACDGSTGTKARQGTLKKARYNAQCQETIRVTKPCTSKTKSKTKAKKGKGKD
Procedure: as §1, §2

[4] = biological target: T1, recombinant human midkine (huMK); test: ELISA, plate coated with huMK
Procedure: as §1

[5] = biological target: T2, recombinant murine midkine (muMK); test: ELISA, plate coated with muMK
Procedure: as §1

[6] = biological target: T2, recombinant murine midkine (muMK); test: ELISA on plate-coated muMK, antibody titrated up to 3 µg/ml, Abs 450nm on the sheet's axis [continued), panel IP14 Hv3 Murine Midkine]
Procedure: as §1, with “The reaction was stopped with 3 M HCl, absorbance read at 490 nm on a Dynex Technologies MRX TC II plate reader and the binding curves plotted.” left out

% Inhibition of UMR106 cell migration, Assay 4 [1] | % Inhibition of UMR106 cell migration, Assay 5 [1] | % Inhibition of UMR106 cell migration, Assay 6 [1] | Mean % Inhibition of UMR106 cell migration [1] | Mean Cells/Field, Assay 4 (UMR106 migration, antibody 100 ug/mL, MK-17 20 µg/mL) [1] | Mean Cells/Field, Assay 5 (UMR106 migration, antibody 100 ug/mL, MK-17 20 µg/mL) [1] | Mean Cells/Field, Assay 6 (UMR106 migration, antibody 100 ug/mL, MK-17 20 µg/mL) [1] | Kd [2] | Kd [3] | EC50 [4] | EC50 [5] | binding result [6] | Binder
6% | 10% | 38% | 18% | 45 cells/field | 38 cells/field | 26 cells/field | 0.144 nM | 0.166 nM | – | – | – | B1
– | – | – | – | – | – | – | 0.104 nM | 0.13 nM | 0.104 nM | 0.13 nM | – | B2
– | – | – | – | – | – | – | – | – | 5.7 nM | – | binds | B3
44% | 24% | 48% | 38.7% | 27 cells/field | 32 cells/field | 22 cells/field | 0.042 nM | 0.091 nM | 0.042 nM | 0.091 nM | – | B4
– | – | – | – | – | – | – | – | – | 0.068 nM | 0.051 nM | – | B5
– | – | – | – | – | – | – | – | – | 5.79 nM | – | binds | B6
48% | 40% | 45% | 44.3% | 25 cells/field | 25 cells/field | 23 cells/field | 0.07 nM | 0.048 nM | 0.07 nM | 0.048 nM | – | B7
60% | 31% | 31% | 40.7% | 19 cells/field | 29 cells/field | 29 cells/field | 0.06 nM | 0.05 nM | 0.06 nM | 0.05 nM | – | B8
– | – | – | – | – | – | – | – | – | 0.088 nM | 0.048 nM | – | B9
